Measurements: US20220125947A1 (published 2022)
Residue numbers refer to the chain shown, from its start.

B1: VG9B396 (antibody, human IgG1, lambda, V domains shown)
VH: EVQLVESGPGLVQPSETLSLTCTVSGDSIRGYYWNWIRQPAGKGLEWIGRIFTTGNTNYNPSLKSRLTMSLDTSKNQFSLKLNSVTAADTAVYYCAREKWDSSSSALYFDFWGQGTLVTVSS
VL: QSVLTQAPSVSGAPGQRVTISCTGSSSNIGADYDVKWYQQLPGTAPKLLIYGNTDRPSGVPDRFSGSKSGTSASLAITGLQAEDEADYYCQSYDSRLTGYVVFGGGTKLTVLG
notes: also called antibody #60
B2: VG9B161 (antibody, human IgG1, lambda, V domains shown)
VH: QVQLQESGPGLVKPSETLSLTCTVSGGSISSYFWSWIRQPPGKGLEWIGYIFYSGSTNYNPSLKSRVTILVDTSKNHFSLKLSSVTAADTAVYYCARVGRWELRGAFDIWGQGTMVTVSS
VL: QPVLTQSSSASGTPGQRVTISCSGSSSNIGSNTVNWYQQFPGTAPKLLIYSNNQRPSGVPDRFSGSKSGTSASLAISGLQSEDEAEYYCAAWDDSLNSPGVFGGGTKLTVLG
notes: also called antibody #66
B3: VG9B411 (antibody, human IgG1, kappa, V domains shown)
VH: EVQLVESGGGLVKPGGSLRLSCSASGFTFSNYDMNWVRQAPGKGLEWVSSISSSSSYIYYADSVKGRFTISRDNAKNSLYLQMNSLRAEDTAVYHCARDVGVTTDYYYYGMDVWGQGTTVTVSS
VL: EIVMTQSPSSVSASVGDRVTITCRASQGINSWLAWYQQDPYKAPKLLIYAASTLQSGVPSRFGGRGSGTEFTLTISSLQPEDFAVYYCQQYNNWPRTFGQGTKVDIKR
notes: also called antibody #58
B4: VG9B169 (antibody, human IgG1, lambda, V domains shown)
VH: EVQLLESGPGLVKPSETLSLTCSVSGGSITNYFWNWIRQPPGKGLEWIGYIFYSGSTSYNPSLKSRVTISVDTSKNRFSLKLISVTAADTAVYYCARVGRWELRTAFDIWGQGTMVTVSS
VL: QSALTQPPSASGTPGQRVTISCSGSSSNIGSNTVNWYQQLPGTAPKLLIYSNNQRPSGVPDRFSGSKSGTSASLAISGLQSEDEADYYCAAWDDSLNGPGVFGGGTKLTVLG
notes: also called antibody #63
B5: VG9B111 (antibody, human IgG1, kappa, V domains shown)
VH: QVQLLESGGGLVKPGGSLRLSCAASGFTFSTYSVNWVRQAPGKGLEWVSSISSDSSYIFYADSMKGRFTISRDNAKNSLYLHMNSLRAEDTAVYYCARDSVTGPFDYWGQGTLVTVSS
VL: DIVMTQSPSSLSASVGDRVTITCQASQDISHYLNWYQQKPGKAPKLLIYDSYILETGVTSRFSGSGSGTDFTFTINSLQPEDIAIYYCQQYDNLPYTFGQGTKVEIKR
notes: also called antibody #62
B6: VG9B639 (antibody, human IgG1, kappa, V domains shown)
VH: QVQLVQSGGGLVKPGGSLRLSCAASGFTFTTYRMNWVRQAPGKGLEWVSSISSSSIYIHSADSVKGRFTISRDNAKNSLYLQMNSLRAEDSAIYYCARERVYTVSFDYWGQGTLVTVSS
VL: B5 VL with V3Q
notes: also called antibody #64
B7: VG9B129 (antibody, human IgG1, kappa, V domains shown)
VH: EVQLVQSGAEVKKPGSSVKVSCKASGGTFSSYVISWVRQAPGQGLEWMGGILPILSTANYAQKFQGRVTITADKSTSTAYMELSSLRSEDTAVYYCARAHDYYYGMDVWGQGTTVTVSS
VL: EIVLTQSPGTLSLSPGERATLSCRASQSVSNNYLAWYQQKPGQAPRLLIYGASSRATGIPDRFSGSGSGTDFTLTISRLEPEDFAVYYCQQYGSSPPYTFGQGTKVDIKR
notes: also called antibody #59
B8: VG9B201 (antibody, human IgG1, lambda, V domains shown)
VH: QVTLKESGPTLVKPTQTLTLTCTFSGFSLTTHGVGVGWIRQPPRKALEWLALIYWNADKHYSPSLKSRLTITKDTSKNQVVLTMTHMDPVDTATYYCAHEGDWGHYFDFWGQGTLVTVSS
VL: QLVLTQPPSVSAAPGQKVTISCSGSSSNIGNNDVSWYQQLPGTAPKLLIYDNNRRPSGIPDRFSGSKSGTSATLGITGLQTGDEADYYCETWDSSLSAIWVFGGGTKVTVLG
notes: also called antibody #65
B9: VG9B470 (antibody, human IgG1, kappa, V domains shown)
VH: QVTLKESGPTLVKPTQTLTLTCTFSGFSLTTSGVGVGWIRQPPGKALEWLALILWNDHTIYSPSLKSRLTITKDTSKNQVVLTMTNMDPVDTAAYFCARDKWELRDAFDIWGQGTMVTVSS
VL: EIVMTQSPSFLSASVGDRVTFTCRASQGISRYLAWYQQKPGRAPNLLIYVASTLQSGVPSRFSGSGSGTEFTLTISSLLPEDFATYYCQQLISYPYTFSQGTRLEIKR
notes: also called antibody #61
B10: VG9B152 (antibody, human IgG1, lambda, V domains shown)
VH: EVQLVESGGGLVRPGGSLRLSCEASGFTFSSYSMIWVRQAPGKGLEWVSSISSSSDYIYNADSVKGRFTISRDNAKNSLYLQMNSLRAEDTAVYYCARDWELLGFDCWGQGTTVTVSS
VL: SYELMQPPSVSVSPGQTASITCSGDKLGDKYACWYQQKPGQSPVLVIYQHNKRPSGIPERFSGSNSGKTATLTISGTQAMDEADYYCQAWDSTTVVFGGGTKLTVLG
B11: VG9B409 (antibody, human IgG1, kappa, V domains shown)
VH: EVQLVESGAEVKKPGASVKVSCKASGYTLTSYYMHWVRQAPGQGLEWMGIINPSGGSTSYAQKFQGRVTMTRDTSTSTVYMELSSLRSEDTAVYYCARGSYGWYFDLWGRGTLVTVSS
VL: EIVLTQSPGTLSLSPGERATLSCRASQSVTSSYLAWYQQKPGQTPRLLIYGASSRATGIPDRISGSGSGTDFTLTVSRLEPEDFAVYYCQQYGSSPPYTFGQGTKLEIKR
B12: VG9B32 (antibody, human IgG1, kappa, V domains shown)
VH: EVQLVQSGGDLLQPGGSLRLSCAASGFTFSRYAMNWVRQAPGKGLEWVSFISGTGYTVYYADSVKGRFTISRDNAKNSLYLQMNSLRDEDTAVYYCARDQEPGFDYWGQGTLVTVSS
VL: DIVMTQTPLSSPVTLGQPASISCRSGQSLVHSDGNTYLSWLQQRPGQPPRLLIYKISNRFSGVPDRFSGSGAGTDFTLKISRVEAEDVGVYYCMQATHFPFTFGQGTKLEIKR
B13: VG9B21 (antibody, human IgG1, kappa, V domains shown)
VH: EVQLLESGGGLVKPGGSLRLSCAASGFSFSNYDMNWVRQAPRKGLEWVSSISSSSHYIYYADSLKGRFTISRDNAKNSLFLQMNSLRAEDTAVYYCARDRGVTTDYYYYALDVWGQGTMVTVSS
VL: DIVMTQSPSSLSASVGDRVTITCRASQGIYNYLAWYQQKPGNVPKLLIYAASTLQSGVPSRFSGSGSGTDFSLTISSLQPEDFTTYYCQKYNRAPFTFGPGTKVDIKR
B14: VG9B57 (antibody, human IgG1, kappa, V domains shown)
VH: EVQLVESGGGLVKPGGSLRLSCAASGFTFSSHDMNWVRQAPGKGLGWVSSISSSSSYIFYADSVKGRFTISRDNAKNSLYLQMSSLRAEDTAVYYCARDLGVGVRDYYYYGMDVWGQGTMVTVSS
VL: DIQMTQSPSAMSASVGDRVTITCRASQDITNYLAWFQQKPGKVPKRLIYAASSLQGGVPSRFSGSGSGTEFTLTISSLQPEDFSTYYCLQHDTYPYTFGQGTKLEIKR
B15: VG9B162 (antibody, human IgG1, lambda, V domains shown)
VH: QVQLVESGAEVTKPGASVKVSCKASGYTFTGDYMHWVRQAPGQGLEWMGWINPNSGYTNYAQKFQGRVTMTRDTSISTAYMELSRLRSDDTAVYYCAREGDAFDVWGQGTMVTVSS
VL: QLVLTQSSSASGSPGQSVTISCTGTSSDVGGYNYVSWYQQHPGKAPKLMIYEVSKRPSGVPDRFSGSKSGNTASLTVSGLQAEDEADYYCNSYAGSNNFEVFGGGTKLTVLG
B16: VG9B60 (antibody, human IgG1, kappa, V domains shown)
VH: QVQLVQSGAEVKKPGASVKVSCKASGYTFTGYYMHWVRQAPGQGLEWMGRINPNSGVTHYAQKFQGRVTMTRDTSISTAYMELSRLRSDDTAVYYCARGGSLVRGVISGLDYWGQGTTVTVSS
VL: DIVMTQSPGTLSLSPGERATLSCRASQSFSGSYLAWYQQKPGQAPSLLIYGASSRATGIPDRFSGSGSGTDFTLTISRLEPEDFALYYCQQYGSSPPYTFGQGTKVEIKR
B17: VG9B66 (antibody, human IgG1, kappa, V domains shown)
VH: EVQLVESGGGLVKPGGSLRLSCAASGFTFSTYTMNWVRQAPGKGLEWVSSISSSSFYMDYADSVKGRFTISRDNAKNSLSLLMNSLRAEDTAVYYCARDGDIVATIRGSFDYWGQGTMVTVSS
VL: EIVLTQSPSSLSTSVGDRVTITCRASQDITNFLAWYQQKPGKLPKLLIYTASTLQSGVPSRFSGSASGPDFTLTISSLQPEDVATYYCQKYNSAPFTFGPGTKVEIKR
B18: VG9B135 (antibody, human IgG1, kappa, V domains shown)
VH: QVTLKESGPTLVTPSQTLTLTCTFSGFSLTTYGVGVGWIRQPPGKALEWLALIYWNDDKRYYPSLNNRLTITKDTSKHLVVLTLTNMDPVDTATYYCAHDYDFWSGYFDYWGQGTLVTVSS
VL: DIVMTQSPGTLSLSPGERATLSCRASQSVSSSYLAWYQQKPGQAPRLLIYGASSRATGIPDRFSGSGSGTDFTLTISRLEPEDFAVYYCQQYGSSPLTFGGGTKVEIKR
B19: VG9B64 (antibody, human IgG1, kappa, V domains shown)
VH: QVQLVESGPTLVKPTQTLTLTCTFSGFSLSISGVSVGWIRQPPGKALEWLALIYWNDDKRYSPSLQSRVTITKDTSKNQVVLTVTNMDSVDTATYYCVHSGQWLEGDAFDIWGQGTMVTVSS
VL: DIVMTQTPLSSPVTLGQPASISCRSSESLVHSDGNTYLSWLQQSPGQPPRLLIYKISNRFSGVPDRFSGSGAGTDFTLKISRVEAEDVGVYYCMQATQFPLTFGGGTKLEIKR
B20: VG9B128 (antibody, human IgG1, kappa, V domains shown)
VH: EVQLVESGGGVVQPGKSLRLSCTASGFTFGTYGMHWVRQAPGKGLDWVAVIWYNGSNKYYADSVKGRFTISRDNSKNTLYLQMNSLRTEDTAVYYCARGGFGESFDSWGQGTLVTVSS
VL: DIVMTQTPATLSLSPGERATLSCRASQSVIDYLAWFQQKPGQAPRLLIYDASNRATGIPARFSGSGSGTDFTLTISSLEPEDFAVYYCQQRSNWPLTFGGGTKVEIKR

target: T1, γδ T cell receptor on human γδ T cells (human); experiment: flow cytometry, dose-response (DRC) binding at 37°C on human γδ T cells
T1 construct: also called AG000003021 (γδ T cells)
Description: (§1) Binding of antibodies to human γδ T cells or SKW cell lines expressing Vγ9/Vδ2, Vγ9/Vδ2 or Vγ5/Vδ2 was carried out by flow cytometry. Briefly, the cells were centrifuged at 300×g for 5 minutes and the pellet was resuspended in 34 ml fresh media (in RPMI+10% FBS). 50 μL of the cells were then plated (44K cells/well) into assay plates. Samples were incubated for one hour at 37° C. in tissue culture (TC) incubator followed by wash steps by adding 100 μl FACS staining buffer. Secondary detention antibodies (A647 conjugated anti-human IgG Fc specific antibody (2 μg/mL) along with AF488 anti mouse CD3, clone OKT3 at 1 ug/mL) were added at 50 μL/well to appropriate wells according to the plate map. After incubating for 60 minutes at 37° C. in the TC incubator, cells were again washed as described above. This is followed by resuspension in 20 μL/well running buffer containing 1:1000 dilution of Sytox blue dead cell stain and the plates were run on iQue Screener.
(§2) Gating and data analysis: Human anti-human Vγ9 antibody (VG9B2 mAb at 10 nM) was used to mark the gating of positive population. All cells were first gated for singlets on SCS-A vs. SCS-H dot plot, live/dead followed by CD3 positive population, and this subset of CD3 positive population was gated for Vγ9 positive binding using positive control mAb. Cells were also assessed for cell binding of control mAbs by RL1 (A647) Geomeans from the live cell population. Advanced metrics were used and normalization metrics were chosen to calculate fold over background wells containing secondary antibody alone (designated as ‘background’ within ForeCyt settings).

| Binder | Max. Activity [fold over background] |
| --- | --- |
| B1 | 4540 |
| B2 | 2820 |
| B3 | 396 |
| B4 | 3250 |
| B5 | 3430 |
| B6 | 3240 |
| B7 | 271 |
| B8 | 3170 |
| B9 | 4270 |

target: T2, γδ T cell receptor on human γδ T cells (human); experiment: flow cytometry, dose-response binding at 37° C. on human γδ T cells
T2 construct: Mixed population of primary cells; also called AG000003021 (γδ T cells)
Description: as §1, §2

| Binder | Max. Activity [fold over background] |
| --- | --- |
| B10 | 1850 |
| B11 | 411 |
| B12 | 1210 |
| B13 | 1670 |
| B14 | 1210 |
| B15 | 1860 |
| B16 | 567 |
| B17 | 1220 |
| B18 | 577 |
| B19 | 1690 |
| B20 | 1480 |
